This note sets out measurements from paper PMC7301450.

In the experiment the target is α-CD64-scFv. Put plainly: ELISA; wells coated with 10 μg/mL α-CD64-scFv overnight at 4 °C, blocked with 3% BSA/PBS; recombinant CD64 at 0, 0.5, 1.0, 5.0 and 10 ng/mL, room temperature 2 h; detected with rabbit anti-CD64 polyclonal antibody, anti-rabbit HRP and TMB, read at 370 nm. In general terms: In an ELISA, binding on a coated surface is turned into a signal by an enzyme label.
Sequence of α-CD64-scFv (heavy, as listed by the source, chain 1 of 2): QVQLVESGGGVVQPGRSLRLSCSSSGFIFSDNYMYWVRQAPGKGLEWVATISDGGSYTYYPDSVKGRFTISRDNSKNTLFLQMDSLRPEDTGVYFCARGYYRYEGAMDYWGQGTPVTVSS
Sequence of α-CD64-scFv (light, as listed by the source, chain 2 of 2): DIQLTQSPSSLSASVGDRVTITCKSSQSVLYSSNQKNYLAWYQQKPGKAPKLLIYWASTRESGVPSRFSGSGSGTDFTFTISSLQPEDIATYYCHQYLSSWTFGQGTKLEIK

Turning to “recombinant human CD64 (from UniProt P12314 16-292) (receptor)”, the maximum absorbance (at 5 ng/mL CD64) turned out to be 0.236 absorbance.
